Molecular target: T1, 6xHis-tagged, recombinant human CD30 (Sino Biological Inc., order #10777-H08H) (human, UniProt P28908 19-379)
T1 construct: Bought soluble reagent; It was detected with biotinylated anti-His-tag antibody and streptavidin-PE; also called CD30 antigen; CD30-6xHis
T1 sequence: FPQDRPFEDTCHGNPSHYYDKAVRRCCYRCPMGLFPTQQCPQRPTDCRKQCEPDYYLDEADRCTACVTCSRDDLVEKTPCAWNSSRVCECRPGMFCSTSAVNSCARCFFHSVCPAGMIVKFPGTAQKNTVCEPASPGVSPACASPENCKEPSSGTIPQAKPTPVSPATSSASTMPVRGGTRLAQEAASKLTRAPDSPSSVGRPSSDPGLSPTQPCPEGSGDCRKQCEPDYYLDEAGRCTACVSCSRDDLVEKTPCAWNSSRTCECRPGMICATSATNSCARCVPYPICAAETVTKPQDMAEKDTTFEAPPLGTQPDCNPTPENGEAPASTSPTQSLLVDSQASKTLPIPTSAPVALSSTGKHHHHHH
Experiment: flow cytometry; 63-12 cells displaying anti-CD19 IgG as background, stained with His-tagged CD30 / anti-His-biotin / strep-PE
Procedure: After the final FACS staining, the cells were again washed twice in ice-cold PBS, 2% FCS, and then resuspended in 1.0 ml PBS, 2% FCS, after which the cells were subjected to FACS analysis and cell sorting of Ig-kappaLC/CD30 positive cells (see FIG. 13).

binding result: no binding (tested: 0.1 µg CD30 in 1 ml)
B1: humanized anti-human CD19 antibody hBU12, membrane bound human IgG1 on the surface of 63-12 proB cells (antibody, V domains shown)
VH: QVQLQESGPGLVKPSQTLSLTCTVSGGSISTSGMGVGWIRQHPGKGLEWIGHIWWDDDKRYNPALKSRVTISVDTSKNQFSLKLSSVTAADTAVYYCARMELWSYYFDYWGQGTLVTVSS
VL: EIVLTQSPATLSLSPGERATLSCSASSSVSYMHWYQQKPGQAPRLLIYDTSKLASGIPARFSGSGSGTDFTLTISSLEPEDVAVYYCFQGSVYPFTFGQGTKLEIK
notes: also called anti-CD19 mAb hBU12; anti-CD19 mAb
